Paper PMC4800418, “A two-component system regulates gene expression of the type IX secretion component proteins via an ECF sigma factor” (Scientific Reports, 2016)

Experiments:
[1] = target: T1, rSigP (ECF sigma factor) (Porphyromonas gingivalis ATCC 33277) (UniProt B2RHE8); assay: EMSA
T1 sequence: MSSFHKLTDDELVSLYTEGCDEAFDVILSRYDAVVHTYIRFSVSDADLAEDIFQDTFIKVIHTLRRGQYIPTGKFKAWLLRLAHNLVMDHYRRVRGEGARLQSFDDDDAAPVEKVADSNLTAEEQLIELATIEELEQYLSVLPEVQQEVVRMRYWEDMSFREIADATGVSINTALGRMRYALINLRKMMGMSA

recombinant PorX (rPorX) [2] = target: T2, recombinant PorX (rPorX) (Porphyromonas gingivalis ATCC 33277, UniProt B2RJJ3 1-518); assay: SPR; conditions: both partners purified
T2 construct: also called PGN_1019; source: E. coli BL21(DE3), purified (Ni-NTA agarose)
T2 sequence: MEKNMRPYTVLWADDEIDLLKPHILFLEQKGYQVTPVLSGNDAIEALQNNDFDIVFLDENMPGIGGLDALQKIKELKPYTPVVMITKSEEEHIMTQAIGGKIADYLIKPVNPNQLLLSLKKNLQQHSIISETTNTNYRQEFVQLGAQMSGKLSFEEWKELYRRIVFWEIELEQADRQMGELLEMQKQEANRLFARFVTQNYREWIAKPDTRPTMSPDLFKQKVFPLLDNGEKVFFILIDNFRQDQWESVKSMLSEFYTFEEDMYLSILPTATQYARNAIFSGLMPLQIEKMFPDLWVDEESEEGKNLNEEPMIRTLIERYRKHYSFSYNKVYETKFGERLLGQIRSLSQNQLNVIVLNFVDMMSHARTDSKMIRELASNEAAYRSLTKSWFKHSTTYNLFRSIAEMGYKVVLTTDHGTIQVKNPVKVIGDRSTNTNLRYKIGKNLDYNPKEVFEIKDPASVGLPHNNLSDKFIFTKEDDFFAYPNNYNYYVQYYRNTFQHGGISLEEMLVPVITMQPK

recombinant PorX (rPorX) [3] = target: T3, recombinant PorX (rPorX) (Porphyromonas gingivalis ATCC 33277, UniProt B2RJJ3 1-518); assay: SPR
T3 chain: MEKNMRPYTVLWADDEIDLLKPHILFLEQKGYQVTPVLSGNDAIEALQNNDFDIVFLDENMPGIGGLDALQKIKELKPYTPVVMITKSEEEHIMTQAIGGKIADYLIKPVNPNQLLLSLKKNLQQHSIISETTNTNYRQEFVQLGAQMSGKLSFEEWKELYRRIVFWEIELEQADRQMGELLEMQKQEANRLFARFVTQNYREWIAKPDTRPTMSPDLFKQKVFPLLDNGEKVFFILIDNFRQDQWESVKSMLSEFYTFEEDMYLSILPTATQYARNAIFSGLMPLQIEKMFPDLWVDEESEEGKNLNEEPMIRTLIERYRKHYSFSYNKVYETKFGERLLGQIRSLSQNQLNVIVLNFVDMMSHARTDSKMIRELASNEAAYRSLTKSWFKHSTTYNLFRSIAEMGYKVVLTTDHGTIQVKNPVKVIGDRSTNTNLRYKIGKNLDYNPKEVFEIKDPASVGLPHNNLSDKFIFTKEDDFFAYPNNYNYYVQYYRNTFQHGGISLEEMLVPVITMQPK

For “TTAGTGACTGAAATGCGATTGCCCTGTTACAAACGGACTTGATACAACATTTTCCCTACTTTTGCGTTAGTTTCCTATAGTAATAAACAACACTATGGTG (double strand) [ruvA promoter probe]”, the binding [1] was “binds”.

In the case of “ATAATTATTGTTGTGAGGTAGGTTATGCAAATCTACGAACGAGATGTTCTAAATACCGATTCGCGCAAAAATACAATATCTTTGCTGCATAAGGCGTTGA (double strand) [porT promoter probe]”, the binding [1] is reported as “binds”.

In the case of “GCAAAGAGGATTTTTTCTTCAACGAAGAAGAGTACTGATAATGTAATCTCCTTAAGCGAATATGCCCCGGATGTGCAATAATAGCACTCGGGGCTTCGTTTTACCACCGTGGCATCAGTC (double strand) [porP promoter probe]”, the binding [1] is reported as “binds”.

For “GGCTATACGCAAAGCAGTCAAGTCCATTCTCTCCGAGGATTCGTCCTTAGCTGTCGAAGATATTATCAAGCGAGCATTACGAATGTTATAACCTTTTCTC (double strand) [sov 5'-adjacent region probe]”, the binding [1] was “no binding”.

For “ATTTCGTTCGTTTTGTTTTGTATTCTTATCGGGGTCTATGAATATTCAATATCGTAAACGGCAGAACTGCTTCGGCTATTGTGCTACCACGATCATTTTCTTGGCCATGGAGGCCGTCTG (double strand) [porV promoter probe]”, the binding [1] was “binds”.

“ACATTATTTATATATCTGCTTCGCTGCTCTCCCCGAATCCTGCGCTAAGGCAGTTTTCAGAGGAAACGAATGCTTTTATACTTTGCATCTCTATTCTTCGTATTGCTCAATGGGAAAGAA (double strand) [porK 5'-adjacent region probe]” was tested, and the binding [1] was “no binding”.

B1: recombinant SigP (rSigP) (natural protein)
chain: MSSFHKLTDDELVSLYTEGCDEAFDVILSRYDAVVHTYIRFSVSDADLAEDIFQDTFIKVIHTLRRGQYIPTGKFKAWLLRLAHNLVMDHYRRVRGEGARLQSFDDDDAAPVEKVADSNLTAEEQLIELATIEELEQYLSVLPEVQQEVVRMRYWEDMSFREIADATGVSINTALGRMRYALINLRKMMGMSA
notes: source: E. coli BL21(DE3), purified (Ni-NTA agarose)
In the case of B1, the Kd (recombinant PorX (rPorX) [2]) is reported as 78.3 nM and the koff (recombinant PorX (rPorX) [3]) is reported as 0.000529 s⁻¹.
